Source: PMC6910828, “Extraction of active RhoGTPases by RhoGDI regulates spatiotemporal patterning of RhoGTPases” (eLife, 2019)

Columns and labels:
Conditions in all cases: both partners purified
[1] = molecular target: Cy3-labelled, prenylated Cdc42 G12V, GTPγS-bound (Cy3 at the N-terminus (Cy3 N-t labeled LPETGG peptide joined by sortase); geranylgeranyl by in vitro prenylation (C-terminal prenyl moiety); GTPγS-bound); assay: membrane extraction (wash-off) assay on supported lipid bilayers, TIRF; as above, GDI titrated between 0 and 20 µM; Koff of the GTPase from the membrane plotted against GDI concentration and fitted with a hyperbolic function (Kd, Vmax); apparent affinities
Chain of Cy3-labelled, prenylated Cdc42 G12V, GTPγS-bound (Cy3 at the N-terminus (Cy3 N-t labeled LPETGG peptide joined by sortase); geranylgeranyl by in vitro prenylation (C-terminal prenyl moiety); GTPγS-bound) (chain, as listed by the source G12V): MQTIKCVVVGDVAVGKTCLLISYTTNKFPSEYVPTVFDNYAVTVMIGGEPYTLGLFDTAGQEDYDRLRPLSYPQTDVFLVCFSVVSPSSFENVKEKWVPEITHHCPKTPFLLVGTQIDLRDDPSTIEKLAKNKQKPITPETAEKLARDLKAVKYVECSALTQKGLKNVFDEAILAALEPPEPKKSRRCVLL

[2] = molecular target: Cy3-labelled, prenylated Rho G14V, GTPγS-bound (Cy3 at the N-terminus (Cy3 N-t labeled LPETGG peptide joined by sortase); geranylgeranyl by in vitro prenylation (C-terminal prenyl moiety); GTPγS-bound); assay: as above
Chain of Cy3-labelled, prenylated Rho G14V, GTPγS-bound (Cy3 at the N-terminus (Cy3 N-t labeled LPETGG peptide joined by sortase); geranylgeranyl by in vitro prenylation (C-terminal prenyl moiety); GTPγS-bound) (chain, as listed by the source G14V): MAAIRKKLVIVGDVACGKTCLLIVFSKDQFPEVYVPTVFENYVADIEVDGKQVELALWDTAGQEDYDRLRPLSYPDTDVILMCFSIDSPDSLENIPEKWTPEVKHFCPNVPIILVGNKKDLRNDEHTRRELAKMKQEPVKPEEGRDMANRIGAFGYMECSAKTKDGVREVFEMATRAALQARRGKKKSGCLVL

[3] = molecular target: Cy3-labelled, prenylated Cdc42, wild type, GDP-bound (Cy3 at the N-terminus (Cy3 N-t labeled LPETGG peptide joined by sortase); geranylgeranyl by in vitro prenylation (C-terminal prenyl moiety); GDP-bound); assay: membrane extraction (wash-off) assay on supported lipid bilayers, TIRF; Cy3-labelled prenylated GTPase (200 nM) equilibrated on 100% DOPC supported lipid bilayers, flushed at 10 µL/sec with imaging buffer (20 mM HEPES pH 7.0, 150 mM KCl, 1.5 mM MgCl2, 0.5 mM EGTA, 100 µM GDP/GTP) alone or with 5 µM RhoGDI; decay fitted with a monoexponential function
Chain of Cy3-labelled, prenylated Cdc42, wild type, GDP-bound (Cy3 at the N-terminus (Cy3 N-t labeled LPETGG peptide joined by sortase); geranylgeranyl by in vitro prenylation (C-terminal prenyl moiety); GDP-bound) (P60953 whole entry): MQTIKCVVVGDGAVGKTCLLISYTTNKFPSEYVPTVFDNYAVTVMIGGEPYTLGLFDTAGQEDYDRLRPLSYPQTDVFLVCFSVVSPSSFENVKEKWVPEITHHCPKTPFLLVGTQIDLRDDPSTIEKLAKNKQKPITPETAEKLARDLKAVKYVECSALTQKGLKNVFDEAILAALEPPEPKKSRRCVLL

fold difference in extraction, GDP-bound GTPase over GTPγS-bound G12V [1]: 1.5 fold
fold difference in extraction, GDP-bound GTPase over GTPγS-bound G14V [2]: 1.5 fold
fold acceleration of the dissociation of Cdc42:GDP from the membrane by excess GDI [3]: ~20 fold
B1: Xenopus laevis RhoGDI, wild type (natural protein)
chain: MAEHEPTPEQLHQIAAENQDEEHSVDYKPPAQKSIKEIQELDQDDESLRKYKEALLGSLPSSADPEASNVVVTKLTLLCDCAPGPLELDLTGDLEKFKKQSFTLKEGVEYRIKISFKVNKEIVSGLRYQQQTYRKGVRLDRTRYMVGSYGPRVDEYEFLTPIEEAPNGMLARGCYNIKSLFTDDDKSNHLSWEWNLHIKNDWKS
